The values that follow come from paper PMC4967961.

Data set [1] deals with T1, HuRΔIII (ΔRRMIII) (UniProt Q15717 1-243). Briefly: displacement from Ago2 miRNPs, HuR IP and qRT-PCR; 300 nM protein, 5 mM Mg2+, 30 C, 60 min; EMSA: 20 mM Tris-HCl pH 7.8, 150 mM KCl, 2 mM MgCl2, 0.1% Triton X-100, 0.5 mM DTT, heparin 5 mg/ml, BSA 1 mg/ml, 10% glycerol, on ice 15 min; 6% native PAGE, 0. A general note: In EMSA bound probe runs differently from free probe, usually more slowly.

In data set [2] the target is T1, HuRΔIII (ΔRRMIII). Briefly: EMSA; EMSA: 20 mM Tris-HCl pH 7.8, 150 mM KCl, 2 mM MgCl2, 0.1% Triton X-100, 0.5 mM DTT, heparin 5 mg/ml, BSA 1 mg/ml, 10% glycerol, on ice 15 min; 6% native PAGE, 0.

T1 sequence (Q15717 1-243, stated change not applied): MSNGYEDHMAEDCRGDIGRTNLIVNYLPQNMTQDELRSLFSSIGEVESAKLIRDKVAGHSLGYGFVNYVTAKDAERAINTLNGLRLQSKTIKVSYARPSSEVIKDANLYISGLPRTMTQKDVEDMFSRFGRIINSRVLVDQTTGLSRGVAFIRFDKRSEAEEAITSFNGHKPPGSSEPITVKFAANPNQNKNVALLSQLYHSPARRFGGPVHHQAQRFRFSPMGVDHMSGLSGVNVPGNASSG

B1: miR-122 from cell-expressed Ago2 miRNPs (ssRNA)
RNA: UGGAGUGUGACAAUGGUGUUUG
Regarding B1, the binding signal in the data set with HuRΔIII (ΔRRMIII) [1] was ~14 fold reduction vs full-length HuR.

B2: TNF-alpha 3'UTR ARE RNA (ssRNA)
RNA: AUUAUUUAUUAUUUAUUUAUUAUUUAUUUAUUUA
On to B2, for which the binding result in the data set with HuRΔIII (ΔRRMIII) [2] is reported as “binds”.
